Assay results from paper PMC4134263.
Where two headings read alike, the source gives them in different places.

B1: lipA site 1 probe (dsDNA)
DNA 1: GAAACGCTTTCCTTCGTAATTCGCAACTGGAACACGCACGCTATGAG
DNA 2: CTCATAGCGTGCGTGTTCCAGTTGCGAATTACGAAGGAAAGCGTTTC
B2: lipA site 2 probe (dsDNA)
DNA 1: CAAAAATAGTTGATAATTACAACAATCTATTGAATTGAAACGC
DNA 2: GCGTTTCAATTCAATAGATTGTTGTAATTATCAACTATTTTTG

Assays:
PdhR [1] = target: T1, PdhR (Escherichia coli, UniProt P0ACL9 1-254); experiment: EMSA
PdhR [2] = target: T1, PdhR; experiment: EMSA; remark: listed apart in the source

T1 sequence (P0ACL9 whole entry): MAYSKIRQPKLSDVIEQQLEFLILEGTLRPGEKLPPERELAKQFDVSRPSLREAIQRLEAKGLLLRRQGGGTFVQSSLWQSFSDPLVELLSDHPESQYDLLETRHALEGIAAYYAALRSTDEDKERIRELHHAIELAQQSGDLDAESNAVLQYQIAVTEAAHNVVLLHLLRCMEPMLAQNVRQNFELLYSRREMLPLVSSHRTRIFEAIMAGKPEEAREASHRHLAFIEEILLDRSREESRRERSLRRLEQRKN

Row | Binder | binding result (PdhR [1]) | binding result (PdhR [2])
1 | B1 | no binding | 
2 | B2 |  | no binding
